Measurements as given in patent publication US20170334973A1 (INTEGRATED BIOTHERAPEUTICS, published 2017).

Tests used:
[1] = molecular target: SUDV GPddmuc (Sudan virus (SUDV), UniProt Q66814 33-650); experiment: ELISA
[2] = molecular target: EBOV GPddmuc (Ebola virus (EBOV), UniProt Q05320 33-650); experiment: ELISA
[3] = molecular target: MARV GPddmuc (Marburg virus (MARV), UniProt P35253 19-648); experiment: native ELISA

Binder	EC50 [1]	EC50 [2]	binding result [3]
FVM01P (antibody, V domains shown) VH: QVQLQESGPGLVKPSETLSLTCTVSGASISNYRWNWIRQPPGKGLEWIGEINGYSGSTNYNPSLKSRVTISKDASKNQFSLKLTSVTAADTAVYYCPIIGGFTLEWFDVWGPGVLVTVSS VL: DVVLTQSPSSLSASVGDRVTITCRASQGIRNYLNWYQQKPRKAPKLLIYAASSLQSGVPSRFSGSGSGTEFTLTISSLQAEDFATYYCLQGYRTPFTFGPGTKLDIKR	0.047 nM	0.057 nM	no binding
FVM05 (antibody, V domains shown) VH: QVQLQESGPGLVKPSETLSLTCAVSGFSISSGYGWSWIRQPPGKGLEWIGYIGGSSGSTSYNPSLKSRVTLSADTSKNQFSLKLSSVTAADTAVYYCARRYSSYRSWFDVWGPGVLVTVSS VL: SSGLTQPRSVSVSPGQTARITCGGDNIGSKSVHWYQQKPPQAPVLVIYADSERPSGIPERFSGSNSGNTATLTISGVEAGDEADYYCQVWDSSSDHWVFGGGTRLTVL		2.67 nM	no binding
FVM29 (antibody, V domains shown) VH: EVQLVQSGAEVKRPGESLKISCQTSGNSFTNNWISWVRQMPGKGLEWMGAIDPSDSETRYSPSFQGQVTISADKSINTAYLQWSSLKASDTATYYCVKGSETWGQGVLVTVSS VL: QPVLTQPASLSASPGASASLTCTFSGGINVAGYNILWYQQKAGSPPRYLLRYKSDSTKDQGSGVPSRFSGSKDASANTGILRISGLQSEDEADYYCAIGHSSGWIFGGGTRLTVL	12.8 nM		no binding
FVM10 (antibody, V domains shown) VH: QVQLVQSGAEVKRPGESLKISCQTSGYSFTDSWVAWVRQMPGKGLEWLGSIYPGDSETKYNPSFQGHVTISADKSISTAYLQWSSLKASDTATYYCAKGSETWGQGLRVTVSS VL: QAGLTQPASLSASPGASASLTCTFSGGINVAGYNILWYQQKPGSPPRYLLRYKSDSDKDQGSGVPSRFSGSKDASANTGILRISGLQSEDEADYYCAIGHSSGWIFGGGTRLTVL	0.082 nM	0.079 nM	no binding
FVM08 (antibody, V domains shown) VH: EVQLVQSGAEVKRPGESLTISCKTSGYSFTDSWVAWVRQMPGKGLEWMGSIYPGDSDTRYNPSFEGQVTISADKSISTTYLQWSSLRASDTATYYCVKGADDWGQGVLVTVSS VL: QPVLTQPASLSASPGASASLTCTFSGGINVAGYNILWYQQKAGSPPRYLLRYKSDSTKDQGSGVPSRFSGSKDASANTGILRISGLQSEDEADYYCAIGHSSGWIFGGGTRLTVL	0.048 nM	0.461 nM	no binding
FVM07 (antibody, V domains shown) VH: EVQLVQSGAEVKRPGESLTISCKTSGYSFTDSWIGWVRQMPGKGLEWMGSIYPGDSDTKYNPSFQGHVTISADKSISTTYLQWSSLKASDTATYYCVAREAYWGQGVLVTVSS VL: QPVLTQPASLSASPGASASLTCTFSGGINVAGYHIFWYQQKPGSPPRYLLRYKSDSDKGQGSGVPSRFSGSKDASANTGILRISGLQSEDEADYYCAIGHSSGVLFGGGTRLTVL	0.491 nM	0.119 nM	no binding
FVM39 (antibody, V domains shown) VH: EVQLVQSGAEVKRPGESLRISCKTSGYSFTDSWISWVRQMPGKGLEWLGSIYPGDSETKYNPSFQGHVTISADKSVTTTYLKWSSLKASDTATYYCVKGSETWGQGVLVTVSS VL: QPVLTQPASLSASPGASASLTCTFSGGINVAGYNILWYQQKAGSPPRYLLRYKSDSTKDQGSGVPSRFSGSKDASANTGILRISGLQSEDEADYYCAIGHSSGWIFGGGTRLTVL	0.02 nM	0.027 nM	no binding
FVM06 (antibody, V domains shown) VH: EVQLVQSGAEVKRPGESLTISCKTSGYSFTNYWISWVRQMPGEGLEWMGAIDPSDSDTRYSPSFQGQVTMSADKSITTAYLQWSSLKASDTATYYCVKGSETWGQGVLVTVSS VL: QPVLTQPASLSASPGASASLTCTFSGGINVAGYNILWYQQKAGSPPRYLLRYKSDSTKDQGSGVPSRFSGSKDASANTGILRISGLQSEDEADYYCAIGHSSGWIFGGGTRLTVL	0.05 nM	0.059 nM	no binding
FVM33 (antibody, V domains shown) VH: QVQLVQSGAEVKRPGESLKISCKTSRYSFTSSWIGWVRQMPGKGLEWLGSIYPGDSDTRYNPSFQGHVTISADKSVTTTYLKWSSLKASDTATYYCVKGSETWGQGVLVTVSS VL: QPVLTQPASLSASPGASASLTCTFSGGINVAGYNILWYQQKAGSPPRYLLRYKSDSTKDQGSGVPSRFSGSKDASANTGILRISGLQSEDEADYYCAIGHSSGWIFGGGTRLTVL	0.04 nM	0.04 nM	no binding
FVM27 (antibody, V domains shown) VH: EVQLVQSGAEVKRPGESLKISCKTSGYSFASSWISWVRQMPGKGLEWMGAIDPSDSATRYSPSFQGQVTISADKSISTAYLQWSSLKASDTATYYCVKGSETWGQGVLVTVSS VL: QPVLTQPASLSASPGASASLTCTFSGGINVAGYNILWYQQKAGSPPRYLLRYKSDSTKDQGSGVPSRFSGSKDASANTGILRISGLQSEDEADYYCAIGHSSGWIFGGGTRLIVL	0.04 nM	0.047 nM	no binding
FVM42 (antibody, V domains shown) VH: EVQLVESGAEVKRPGESLTISCKTSGYSFTDSWVAWVRQMPGKGLEWMGSIYPGDSETKYNPSFQGHVTISADKSVTTTYLKWSSLKASDTATYYCVKGSETWGQGVLVTVSS VL: QTVVTQPASLSASPGASASLTCTFSGGINVAGYNILWYQQKAGSPPRYLLRYKSDSTKDQGSGVPSRFSGSKDASANTGILRISGLQSEDEADYYCAIGHSSGWIFGGGTRLTVL			no binding
FVM31 (antibody, V domains shown) VH: QVQLVQSGAEVKRPGESLTISCKTSGYSFTDSWVAWVRQMPGKGLEWLGSIYPGDSDARYNPSFQGHVTISADTSVTTTYLKWSSLKASDTATYYCVKGSETWGQGVLVTVSS VL: KPMLTQPASLSASPGASASLTCTFSGGINVAGYNILWYQQKAGSPPRYLLRYKSDSTKDQGSGVPSRFSGSKDASANTGILRISGLQSEDEADYYCAIGHSSGWIFGGGTRLTVL	0.093 nM	0.107 nM	no binding
FVM36 (antibody, V domains shown) VH: EVQLVQSGAEVKRPGESLTISCKTSGYSFTDNWISWVRQMPGKGLEWMGSIYPGDSETKYNPSFQGHVTISADKSVTTTYLKWSSLKASDTATYYCVKGSETWGQGVLVTVSS VL: QSVLTQPASLSASPGASASLTCTFSGGINVAGYNILWYQQKAGSPPRYLLRYKSDSTKDQGSGVPSRFSGSKDASANTGILRISGLQSEDEADYYCAIGHSSGWIFGGGTRLTVL			no binding
FVM14 (antibody, V domains shown) VH: EVQLVQSGAEVKRPGESLKISCQTSGYSFTSTWITWVRQMPGKGLEWLGSIYPGDSETKYNPSFQGHVTISADKSISTTYLQWNSLKASDTATYYCVKGSETWGQGVLVTVSS VL: QAVVTQPASLSASPGASASLTCTFSGGINVAGYNILWYQQKAGSPPRYLLRYKSDSTKDQGSGVPSRFSGSKDASANTGILRISGLQSEDEADYYCAIGHSSGWIFGGGTRLTVL	0.077 nM	0.086 nM	no binding
FVM15 (antibody, V domains shown) VH: QVQLVQSGAEVKRPGESLRISCKTSGYTFTDYWIAWVRQMPGKGLEWMGSIYPGDSETKYNPSFQGHVTISADKSVTTTYLKWSRLKASDTATYYCVKGSETWGQGVLVTVSS VL: QPVLTQPASLSASPGASASLTCTFSGGINVAGYNILWYQQKAGSPPRYLLRYKSDSTKDQGSGVPSRFSGSKDASANTGILRISGLQSEDEADYYCAIGHSSGWIFGGGTRLTVL	0.035 nM	0.042 nM	no binding
FVM16 (antibody, V domains shown) VH: EVQLVQSGAEVKRPGESLKISCRTSGYSFTSTWINWVRQMPGKGLEWLGSIYPGDSETKYNPSFQGHVTISADKSVTTTYLKWSSLKASDTATYYCVKGSETWGQGVLVTVSS VL: KPMLTQPASLSASPGASASLTCTFSGGINVAGYNILWYQQKAGSPPRYLLRYKSDSTKDQGSGVPSRFSGSKDASANTGILRISGLQSEDEADYYCAIGHSSGWVFGGGTRLTVL	0.059 nM	0.066 nM	no binding
FVM26 (antibody, V domains shown) VH: QVQLVQSGAEVKRPGESLRISCKTSGYTFTDYWIAWVRQMPGKGLEWMGSIYPGDSETKYNPSFQGHVTISADKSVTTTYLKWSRLKASDTATYYCVKGSETWGQGVLVTVSS VL: QPVLTQPASLSASPGASASLTCTFSGGINVAGYNILWYQQKAGSPPRYLLRYKSDSTKDQGSGVPSRFSGSKDASANTGILRISGLQSEDEADYYCAIGHSSGWIFGGGTRLTVL	0.08 nM	0.1 nM	no binding
FVM22 (antibody, V domains shown) VH: EVQLVQSGAEVKRPGESLTISCKTSGYSFTDSWVAWVRQMPGKGLEWLGSIYPGDSETKYNPSFQGHVTISADKSISTAYLQWSSLKASDTATYYCAKGSETWGQGVLVTVSS VL: SSGLTQPASLSASPGASASLTCTFSGGINVAGYNILWYQQKAGSPPRYLLRYKSDSTKDQGSGVPSRFSGSKDASANTGILRISGLQSEDEADYYCAIGHSSGWIFGGGTRLTVL	0.6 nM	0.067 nM	no binding
FVM11 (antibody, V domains shown) VH: EVQLVQSGAEVKRPGESLTISCKTSGYSFTDSWVAWVRQMPGKGLEWLGSIYPGDSETKYNPSFQGHVTISADKSVTTTYLKWSSLKASDTATYYCVKGSETWGQGVLVTVSS VL: NFMLTQPASLSASPGASASLTCTFSGGINVAGYNILWYQQKAGSPPRYLLRYKSDSTKDQGSGVPSRFSGSKDASANTGILRISGLQSEDEADYYCAIGHSSGWIFGGGTRLTVL	0.053 nM	0.059 nM	no binding
